Numbering of substitutions follows the chain as printed. Where no end group is shown, it is not given here. [ ]: non-standard residue; d: D form. The star is where a group is joined. Decanoyl = CCCCCCCCCC(=O)*; Aib = CC(C)(N)C(=O)O

First the molecules themselves.
B1: Compound 17 (peptide)
peptide: HXDGTFISDYSTILDNLAARDFINWLIQTKITK
modifications: Aib at position 2; K33 acylated with C10 via γGlu linker, K(γGlu-C10); C-terminal amide (-NH2)
B2: Compound 12 (peptide)
peptide: B1 peptide with I13X
modifications: Aib at positions 2 and 13; K33 acylated with C10, K(C10); C-terminal amide (-NH2)
B3: Compound 13 (peptide)
peptide: H[Aib]DGTFISDYSTELDNLAARDFINWLIQTKITK(Decanoyl)-NH2
modifications: N-terminus assumed
SMILES: CCCCCCCCCC(=O)NCCCC[C@H](NC(=O)[C@@H](NC(=O)[C@@H](NC(=O)[C@H](CCCCN)NC(=O)[C@@H](NC(=O)[C@H](CCC(N)=O)NC(=O)[C@@H](NC(=O)[C@H](CC(C)C)NC(=O)[C@H](Cc1c[nH]c2ccccc12)NC(=O)[C@H](CC(N)=O)NC(=O)[C@@H](NC(=O)[C@H](Cc1ccccc1)NC(=O)[C@H](CC(=O)O)NC(=O)[C@H](CCCNC(=N)N)NC(=O)[C@H](C)NC(=O)[C@H](C)NC(=O)[C@H](CC(C)C)NC(=O)[C@H](CC(N)=O)NC(=O)[C@H](CC(=O)O)NC(=O)[C@H](CC(C)C)NC(=O)[C@H](CCC(=O)O)NC(=O)[C@@H](NC(=O)[C@H](CO)NC(=O)[C@H](Cc1ccc(O)cc1)NC(=O)[C@H](CC(=O)O)NC(=O)[C@H](CO)NC(=O)[C@@H](NC(=O)[C@H](Cc1ccccc1)NC(=O)[C@@H](NC(=O)CNC(=O)[C@H](CC(=O)O)NC(=O)C(C)(C)NC(=O)[C@@H](N)Cc1c[nH]cn1)[C@@H](C)O)[C@@H](C)CC)[C@@H](C)O)[C@@H](C)CC)[C@@H](C)CC)[C@@H](C)O)[C@@H](C)CC)[C@@H](C)O)C(N)=O
B4: Compound 5 (peptide)
peptide: H[Aib]DGTFISDYSTILDALAARDFINWLIQTKITK(Decanoyl)-NH2
modifications: N-terminus assumed
SMILES: CCCCCCCCCC(=O)NCCCC[C@H](NC(=O)[C@@H](NC(=O)[C@@H](NC(=O)[C@H](CCCCN)NC(=O)[C@@H](NC(=O)[C@H](CCC(N)=O)NC(=O)[C@@H](NC(=O)[C@H](CC(C)C)NC(=O)[C@H](Cc1c[nH]c2ccccc12)NC(=O)[C@H](CC(N)=O)NC(=O)[C@@H](NC(=O)[C@H](Cc1ccccc1)NC(=O)[C@H](CC(=O)O)NC(=O)[C@H](CCCNC(=N)N)NC(=O)[C@H](C)NC(=O)[C@H](C)NC(=O)[C@H](CC(C)C)NC(=O)[C@H](C)NC(=O)[C@H](CC(=O)O)NC(=O)[C@H](CC(C)C)NC(=O)[C@@H](NC(=O)[C@@H](NC(=O)[C@H](CO)NC(=O)[C@H](Cc1ccc(O)cc1)NC(=O)[C@H](CC(=O)O)NC(=O)[C@H](CO)NC(=O)[C@@H](NC(=O)[C@H](Cc1ccccc1)NC(=O)[C@@H](NC(=O)CNC(=O)[C@H](CC(=O)O)NC(=O)C(C)(C)NC(=O)[C@@H](N)Cc1c[nH]cn1)[C@@H](C)O)[C@@H](C)CC)[C@@H](C)O)[C@@H](C)CC)[C@@H](C)CC)[C@@H](C)CC)[C@@H](C)O)[C@@H](C)CC)[C@@H](C)O)C(N)=O
B5: Compound 16 (peptide)
peptide: Y[Aib]DGTFISDYSTILDNLAARDFINWLIQTKITK(Decanoyl)-NH2
modifications: N-terminus assumed
SMILES: CCCCCCCCCC(=O)NCCCC[C@H](NC(=O)[C@@H](NC(=O)[C@@H](NC(=O)[C@H](CCCCN)NC(=O)[C@@H](NC(=O)[C@H](CCC(N)=O)NC(=O)[C@@H](NC(=O)[C@H](CC(C)C)NC(=O)[C@H](Cc1c[nH]c2ccccc12)NC(=O)[C@H](CC(N)=O)NC(=O)[C@@H](NC(=O)[C@H](Cc1ccccc1)NC(=O)[C@H](CC(=O)O)NC(=O)[C@H](CCCNC(=N)N)NC(=O)[C@H](C)NC(=O)[C@H](C)NC(=O)[C@H](CC(C)C)NC(=O)[C@H](CC(N)=O)NC(=O)[C@H](CC(=O)O)NC(=O)[C@H](CC(C)C)NC(=O)[C@@H](NC(=O)[C@@H](NC(=O)[C@H](CO)NC(=O)[C@H](Cc1ccc(O)cc1)NC(=O)[C@H](CC(=O)O)NC(=O)[C@H](CO)NC(=O)[C@@H](NC(=O)[C@H](Cc1ccccc1)NC(=O)[C@@H](NC(=O)CNC(=O)[C@H](CC(=O)O)NC(=O)C(C)(C)NC(=O)[C@@H](N)Cc1ccc(O)cc1)[C@@H](C)O)[C@@H](C)CC)[C@@H](C)O)[C@@H](C)CC)[C@@H](C)CC)[C@@H](C)CC)[C@@H](C)O)[C@@H](C)CC)[C@@H](C)O)C(N)=O

The target of one experiment is T1, human GIPR (glucose-dependent insulinotropic polypeptide receptor) (human, UniProt P48546 22-466).
T1 sequence (looked up): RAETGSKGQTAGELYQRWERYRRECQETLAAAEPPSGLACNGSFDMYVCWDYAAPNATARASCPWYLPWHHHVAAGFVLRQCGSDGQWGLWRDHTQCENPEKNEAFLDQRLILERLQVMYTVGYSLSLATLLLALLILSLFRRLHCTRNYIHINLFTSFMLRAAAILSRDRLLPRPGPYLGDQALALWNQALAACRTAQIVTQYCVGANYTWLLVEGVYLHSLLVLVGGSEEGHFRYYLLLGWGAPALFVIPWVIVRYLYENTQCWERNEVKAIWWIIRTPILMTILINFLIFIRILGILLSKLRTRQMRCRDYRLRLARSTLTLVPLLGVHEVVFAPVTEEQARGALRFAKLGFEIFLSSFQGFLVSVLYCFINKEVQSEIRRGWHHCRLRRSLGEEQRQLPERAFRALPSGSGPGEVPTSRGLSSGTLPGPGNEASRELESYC
The experiment is described as follows: cell-based or functional assay.
Consider H[Aib]DGTFISDYSIILDNLAARDFINWLIQTKITK(Decanoyl)-NH2 [Compound 10], for which the “EC50 (nM) GIPR” value was 0.501 nM, the “Efficacy GIPR” value was found to be 127 and the “pEC50 GIPR” value came to 9.3.
The corresponding values for HXDGTFISDYSTILDNLAARDFIEWLIQTKITK (Aib at position 2; K33 acylated with C10, K(C10); C-terminal amide (-NH2)) [Compound 9] are 0.708 nM, 104 and 9.2.
Regarding B1, the “Efficacy GIPR” value was found to be 97.
Still for that read-out and setting: next, B2: 107.
As for H[Aib]EGTFISDYSTILDNLAARDFINWLIQTKITK(Decanoyl)-NH2 [Compound 11], the “EC50 (nM) GIPR” value was found to be 13.6 nM, the “Efficacy GIPR” value was found to be 89 and the “pEC50 GIPR” value was determined as 7.9.
The corresponding values for B3 are 7.94 nM, 117 and 8.1.
With B4, the “EC50 (nM) GIPR” value came out at 0.158 nM, the “Efficacy GIPR” value was 111 and the “pEC50 GIPR” value stood at 9.8.
For B5, the “EC50 (nM) GIPR” value was 1 nM, the “Efficacy GIPR” value turned out to be 99 and the “pEC50 GIPR” value was 9.

In another experiment the target is T2, human GLP-2R (glucagon-like peptide-2 receptor) (human, UniProt O95838 1-553).
T2 sequence (looked up): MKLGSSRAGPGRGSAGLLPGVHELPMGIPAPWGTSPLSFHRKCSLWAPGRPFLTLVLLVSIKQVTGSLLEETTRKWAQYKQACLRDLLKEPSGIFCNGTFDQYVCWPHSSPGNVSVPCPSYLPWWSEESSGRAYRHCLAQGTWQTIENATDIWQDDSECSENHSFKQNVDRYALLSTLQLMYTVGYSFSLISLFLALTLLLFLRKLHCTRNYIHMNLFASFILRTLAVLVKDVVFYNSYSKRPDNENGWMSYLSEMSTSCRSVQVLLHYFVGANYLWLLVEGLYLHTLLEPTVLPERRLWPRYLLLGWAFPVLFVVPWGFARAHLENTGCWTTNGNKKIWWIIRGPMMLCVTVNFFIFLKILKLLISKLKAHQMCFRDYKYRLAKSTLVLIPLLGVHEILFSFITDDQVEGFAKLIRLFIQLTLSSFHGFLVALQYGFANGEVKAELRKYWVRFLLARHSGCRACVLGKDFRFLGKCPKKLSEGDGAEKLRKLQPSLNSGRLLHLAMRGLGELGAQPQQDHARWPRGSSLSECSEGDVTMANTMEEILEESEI
Briefly: cell-based or functional assay.
For the molecule H[Aib]DGTFISDYSIILDNLAARDFINWLIQTKITK(Decanoyl)-NH2 [Compound 10], the “Efficacy GLP-2R” value turned out to be 103 and the “logEC50 GLP-2R” value turned out to be 8.
Turning to HXDGTFISDYSTILDNLAARDFIEWLIQTKITK (Aib at position 2; K33 acylated with C10, K(C10); C-terminal amide (-NH2)) [Compound 9], the “Efficacy GLP-2R” value was 108 and the “logEC50 GLP-2R” value came out at 8.
Consider B1, for which the “Efficacy GLP-2R” value stood at 92.
Regarding B2, the “Efficacy GLP-2R” value stood at 77.
For H[Aib]EGTFISDYSTILDNLAARDFINWLIQTKITK(Decanoyl)-NH2 [Compound 11], the “EC50 (nM) GLP-2R” value turned out to be 25.1 nM, the “Efficacy GLP-2R” value stood at 68 and the “logEC50 GLP-2R” value came out at 7.6.
For the molecule B3, the “EC50 (nM) GLP-2R” value was 25.1 nM, the “Efficacy GLP-2R” value turned out to be 86 and the “logEC50 GLP-2R” value worked out at 7.6.
For the molecule B4, the “Efficacy GLP-2R” value was 110 and the “logEC50 GLP-2R” value came to 8.7.
As to B5, the “EC50 (nM) GLP-2R” value came to 8.9 nM, the “Efficacy GLP-2R” value was found to be 93 and the “logEC50 GLP-2R” value amounted to 8.1.

In another experiment the target is human GLP-1R (glucagon-like peptide-1 receptor) (human, UniProt P43220 24-463). Briefly: cell-based or functional assay.
H[Aib]DGTFISDYSIILDNLAARDFINWLIQTKITK(Decanoyl)-NH2 [Compound 10]: the “EC50 (nM) GLP-1R” value was found to be 3.98 nM, the “Efficacy GLP-1R” value was 99 and the “logEC50 GLP-1R” value was determined as 8.4.
The like results for HXDGTFISDYSTILDNLAARDFIEWLIQTKITK (Aib at position 2; K33 acylated with C10, K(C10); C-terminal amide (-NH2)) [Compound 9] were, in that order, 5.62 nM, 105 and 8.3.
B1: the “Efficacy GLP-1R” value stood at 107.
Still for that read-out and setting: next, B2: 76.
On to H[Aib]EGTFISDYSTILDNLAARDFINWLIQTKITK(Decanoyl)-NH2 [Compound 11], for which the “EC50 (nM) GLP-1R” value stood at 39.8 nM, the “Efficacy GLP-1R” value was 76 and the “logEC50 GLP-1R” value is 7.4.
The like results for B3 were, in that order, 25.1 nM, 85 and 7.6.
The corresponding values for B4 are 1.78 nM, 105 and 8.8.
The like results for B5 were, in that order, 56.2 nM, 59 and 7.3.
